# B1: SYVN1-EGFP (natural protein, mouse, UniProt Q9DBY1 1-612, looked up)
# chain: MFRTAVMMAASLALTGAVVAHAYYLKHQFYPTVVYLTKSSPSMAVLYIQAFVLVFLLGKVMGKVFFGQLRAAEMEHLLERSWYAVTETCLAFTVFRDDFSPRFVALFTLLLFLKCFHWLAEDRVDFMERSPNISWLFHCRIVSLMFLLGILDFLFVSHAYHSILTRGASVQLVFGFEYAILMTMVLTIFIKYVLHSVDLQSENPWDNKAVYMLYTELFTGFIKVLLYMAFMTIMIKVHTFPLFAIRPMYLAMRQFKKAVTDAIMSRRAIRNMNTLYPDATPEELQAVDNVCIICREEMVTGAKRLPCNHIFHTSCLRSWFQRQQTCPTCRMDVLRASLPAQSPPPPEPADQGPPPAPHPQPLLPQPPNFPQGLLPPFPPGMFPLWPPMGPFPPVPPPPSSGEAAAPPPTSTAVSRPSGAATTTAAGTSTSAPAPGSVPGPEAGPAPGFPFPPPWMGMPLPPPFAFPPMPVPPAGFAGLTPEELRALEGHERQHLEARLQSLRNIHTLLDAAMLQINQYLTVLASLGPPRPATSVNPTEETASTVVSAAPSTSAPSSEAPTPSPGASPPIPEAEKPPAPESVGIVEELPEDGEPDAAELRRRRLQKLESPVAH
# notes: SYVN1 (Hrd1), mouse cDNA from the IMAGE consortium, subcloned into pEGFP-N1; FRET donor; vector pEGFP-N1; also called SYVN1-GFP; source: HEK293T, transfected, in living cells
# B2: EMC3-EGFP (natural protein, mouse, UniProt Q99KI3 1-261, looked up)
# chain: MAGPELLLDSNIRLWVVLPIVIITFFVGMIRHYVSILLQSDKKLTQEQVSDSQVLIRSRVLRENGKYIPKQSFLTRKYYFNNPEDGFFKKTKRKVVPPSPMTDPTMLTDMMKGNVTNVLPMILIGGWINMTFSGFVTTKVPFPLTLRFKPMLQQGIELLTLDASWVSSASWYFLNVFGLRSIYSLILGQDNAADQSRMMQEQMTGAAMAMPADTNKAFKTEWEALELTDHQWALDDVEEELMARDLHFEGMFKKELQTSIF
# notes: EMC3, mouse cDNA from the IMAGE consortium, subcloned into pEGFP-N1; FRET donor; vector pEGFP-N1; also called EMC3-GFP; source: HEK293T, transfected, in living cells
# B3: Ubac2-EGFP (natural protein, mouse, UniProt Q8R1K1 40-345, looked up)
# chain: FFVYDLHAVKHDLQIWRLICGRIICLDLKDAFCSGLLIYNFRIFERRYGSRKFASFLLGSWVLSALFDFILVEAVQYSLGVTVASNLPSGFLAPVFALFVPFHCSIPRVQVAQILGPLSITNKTLIYILGLQLFTSGSYIWIVAMSGLISGMCYDRKVLQVHQVLRIPGRMAEFFSWALEPIFSSSEPTSEARVGMGATVDIQRQQRMEQLDRQLMLSQFAQVRRQRQQQGGMINWNRLFPPLRQRRNINYQDGPRSEQRASPPLEVSEEQVARLMEMGFSRGDALEALRASNNDLNVATNFLLQH
# notes: Ubac2, mouse cDNA from the IMAGE consortium, subcloned into pEGFP-N1; FRET donor; vector pEGFP-N1; source: HEK293T, transfected, in living cells
# B4: EMC1-EGFP (natural protein, mouse, UniProt Q8C7X2 24-997, looked up)
# chain: YEDQVGKFDWRQQYVGKIKFASLEFSPGSKKLVVATEKNVIAALNSRTGEILWRHVDKGTAEGAVDAMLVHGQDAITVSNGGRLMRSWETNIGGLNWEITLDTGSFQALGLVGLQESVRYIAVLKKTTLTLHHLSSGHLKWVEHLPESDSILYQMVYSYGSGVVWALGIVPFSHVNIVKFNVEDGEIVQQVRVWTPWLQHLTGACGVVDEAVLVCPDPSSHSLHTLALETEWELRQIPLQSPDLEFGSGFQPQVLPTQPSPVAPSRAQFFLQLSPSHYALLHYHHGAVTLLKNFPQATLVSFATTGEKTVAAVMTCRTEVQKPVSAGDGSVASFPETSGAQDSLACFNQTYTINLYLVETGRRLLDTSISFSLEQKGTRPEQLYIQVFLKKDDSVGYRALVQTQDHLQLFLQQLAGKVVLWSREESLAEVVCLEMVDLPLTGAQAELEGEFGKKAAIQDGLLGMFLKRLSSQLILLQAWTSHLWKMFYDARKPRSQIKNEINIDTLARDEFNLQKMMVTVTASGKLFGIESSSGTILWKQYLPNVKPDSSFKLMVQRTTAHFPHPPQCTLLVKDKETGMSSLFVFNPIFGKWSQVAPPVLKRPILQSLLLPVMDQDYAKVLLLVDDEYKVTAFPATRNVLRQLHELAPSIFFYLVDAEQGRLSGYQLRKDLTTELSWELTIPPEVQRVVKVKGKRSSEHVHSQGRVMGDRSVLYKSLNPNLLAVVTESTDVHHERTFIGIFLIDGVTGRIIHSSVQKKARGPVHLVHSENWVVYQYWNSKARRNELTALELYEGTEQYNATAFSSLDRPQLPQVLQQSYIFPSSISAMEATITERGITSRHLLIGLPSGAILSLPKALLDPRRPEIPTEQSREENLIPYSPDVQVHAERFINYNQTVSRMRGIYTAPSGLESTCLVVAYGLDIYQTRVYPSKQFDVLKDDYDYVLISSVLFGLVFATMITKRLAQVKLLNRAWR
# notes: EMC1, mouse cDNA from the IMAGE consortium, subcloned into pEGFP-N1; FRET donor; vector pEGFP-N1; source: HEK293T, transfected, in living cells
# B5: Derlin1-EGFP (natural protein, mouse, UniProt Q99J56 1-251, looked up)
# chain: MSDIGDWFRSIPAITRYWFAATVAVPLIGKLGIISPAYFFLWPEAFLYRFQIWRPFTATFYFPVGPGTGFLYLVNLYFLYQYSTRLEAGAFDGRPADYLFMLLFNWICIVITGLAMDMQLLMIPLIMSVLYVWAQLNRDLIVSFWFGTRFKACYLPWVILGFNYIIGGSVINELIGNLVGHLYFFLMFRYPMDLGGRNFLSTPQFLYRWLPSRRGGVSGFGVPPASMRRAADQNGGGGRHNWGQGFRLGDQ
# notes: Derlin1, mouse cDNA from the IMAGE consortium, subcloned into pEGFP-N1; FRET donor; vector pEGFP-N1; source: HEK293T, transfected, in living cells
# Molecular target: T1, membralin-mCherry (mouse, UniProt Q8CIV2 1-574)
# T1 construct: membralin (TMEM259), mouse cDNA from the IMAGE consortium, subcloned into pmCherry-N1; FRET acceptor; also called mCherry-tagged membralin; source: HEK293T, transfected, in living cells
# T1 sequence (Q8CIV2 whole entry): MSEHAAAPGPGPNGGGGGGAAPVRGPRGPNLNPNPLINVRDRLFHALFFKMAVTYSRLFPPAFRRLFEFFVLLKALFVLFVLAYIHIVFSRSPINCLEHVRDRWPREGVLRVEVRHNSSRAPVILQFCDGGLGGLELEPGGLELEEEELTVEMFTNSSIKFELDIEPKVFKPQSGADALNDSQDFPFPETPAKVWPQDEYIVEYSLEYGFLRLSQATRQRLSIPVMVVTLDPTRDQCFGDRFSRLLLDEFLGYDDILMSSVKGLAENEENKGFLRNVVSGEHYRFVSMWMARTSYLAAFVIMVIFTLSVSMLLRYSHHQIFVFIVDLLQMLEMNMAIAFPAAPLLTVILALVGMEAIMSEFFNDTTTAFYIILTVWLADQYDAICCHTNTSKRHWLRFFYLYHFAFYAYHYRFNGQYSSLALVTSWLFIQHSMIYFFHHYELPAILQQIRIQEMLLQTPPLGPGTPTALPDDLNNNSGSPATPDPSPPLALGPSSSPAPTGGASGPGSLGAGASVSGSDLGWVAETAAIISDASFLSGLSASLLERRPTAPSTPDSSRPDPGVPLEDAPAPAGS
# Test: FRET or BRET; acceptor photobleaching in HEK293T co-transfected 24 h with target-EGFP (donor) and membralin-mCherry (acceptor); 10 cells, three independent experiments
# Details: not given
row,FRET efficiency [%],Molecule
1,33.9,FAM8A1-EGFP (from UniProt Q9UBU6 1-413) (natural protein)

# Same assay, conditions: partners not purified
row,FRET efficiency [%],Molecule
1,21.8,B1
2,26.3,B2
3,33.1,B3
4,22.4,B4
5,12.3,B5

# Source: paper PMC5684335, “ER-associated degradation regulates Alzheimer’s amyloid pathology and memory function by modulating γ-secretase activity” (Nature Communications, 2017)
